Data: PMC3413289 (Science signaling, 2012)

B1: coiled-coil PlexinA1_(cyto) fusion with the 1-residue linker (other)
chain: VKQLEDKVEELLSKNAHLENEVARLKKLVGSRDADRTLKRLQLQMDNLESRVALECKEAFAELQTDIHELTSDLDGAGIPFLDYRTYAMRVLFPGIEDHPVLKEMEVQANVEKSLTLFGQLLTKKHFLLTFIRTLEAQRSFSMRDRGNVASLIMTALQGEMEYATGVLKQLLSDLIEKNLESKNHPKLLLRRTESVAEKMLTNWFTFLLYKFLKECAGEPLFMLYCAIKQQMEKGPIDAITGEARYSLSEDKLIRQQIDYKTLTLNCVNPEHENAPEVPVKGLNCDTVTQVKEKLLDAVYKGVPYSQRPKAGDMDLEWRQGRMARIILQDEDVTTKIDNDWKRLNTLAHYQVTDGSSVALVPKQTSAYNISNSSTFTKSLSRYESMLRTASSPDSLRSRTPMITPDLESGTKLWHLVKNHDHLDQREGDRGSKMVSEIYLTRLLATKGTLQKFVDDLFETIFSTAHRGSALPLAIKYMFDFLDEQADKHQIHDSDVRHTWKSNCLPLRFWVNVIKNPQFVFDIHKNSITDACLSVVAQTFMDSCSTSEHKLGKDSPSNKLLYAKDIPNYKSWVERYYADIAKMPAISDQDMSAYLAEQSRLHLSQFNSMSALHEIYSYIAKYKDEILVALEKDEQARRQRLRSKLEQVVDTMALSS
B2: CC-L4-PlexinA1_(cyto) (other)
chain: VKQLEDKVEELLSKNAHLENEVARLKKLVGSSGSRDADRTLKRLQLQMDNLESRVALECKEAFAELQTDIHELTSDLDGAGIPFLDYRTYAMRVLFPGIEDHPVLKEMEVQANVEKSLTLFGQLLTKKHFLLTFIRTLEAQRSFSMRDRGNVASLIMTALQGEMEYATGVLKQLLSDLIEKNLESKNHPKLLLRRTESVAEKMLTNWFTFLLYKFLKECAGEPLFMLYCAIKQQMEKGPIDAITGEARYSLSEDKLIRQQIDYKTLTLNCVNPEHENAPEVPVKGLNCDTVTQVKEKLLDAVYKGVPYSQRPKAGDMDLEWRQGRMARIILQDEDVTTKIDNDWKRLNTLAHYQVTDGSSVALVPKQTSAYNISNSSTFTKSLSRYESMLRTASSPDSLRSRTPMITPDLESGTKLWHLVKNHDHLDQREGDRGSKMVSEIYLTRLLATKGTLQKFVDDLFETIFSTAHRGSALPLAIKYMFDFLDEQADKHQIHDSDVRHTWKSNCLPLRFWVNVIKNPQFVFDIHKNSITDACLSVVAQTFMDSCSTSEHKLGKDSPSNKLLYAKDIPNYKSWVERYYADIAKMPAISDQDMSAYLAEQSRLHLSQFNSMSALHEIYSYIAKYKDEILVALEKDEQARRQRLRSKLEQVVDTMALSS
B3: coiled-coil PlexinA1_(cyto) fusion with the 7-residue linker (other)
chain: VKQLEDKVEELLSKNAHLENEVARLKKLVGSSGSSGSRDADRTLKRLQLQMDNLESRVALECKEAFAELQTDIHELTSDLDGAGIPFLDYRTYAMRVLFPGIEDHPVLKEMEVQANVEKSLTLFGQLLTKKHFLLTFIRTLEAQRSFSMRDRGNVASLIMTALQGEMEYATGVLKQLLSDLIEKNLESKNHPKLLLRRTESVAEKMLTNWFTFLLYKFLKECAGEPLFMLYCAIKQQMEKGPIDAITGEARYSLSEDKLIRQQIDYKTLTLNCVNPEHENAPEVPVKGLNCDTVTQVKEKLLDAVYKGVPYSQRPKAGDMDLEWRQGRMARIILQDEDVTTKIDNDWKRLNTLAHYQVTDGSSVALVPKQTSAYNISNSSTFTKSLSRYESMLRTASSPDSLRSRTPMITPDLESGTKLWHLVKNHDHLDQREGDRGSKMVSEIYLTRLLATKGTLQKFVDDLFETIFSTAHRGSALPLAIKYMFDFLDEQADKHQIHDSDVRHTWKSNCLPLRFWVNVIKNPQFVFDIHKNSITDACLSVVAQTFMDSCSTSEHKLGKDSPSNKLLYAKDIPNYKSWVERYYADIAKMPAISDQDMSAYLAEQSRLHLSQFNSMSALHEIYSYIAKYKDEILVALEKDEQARRQRLRSKLEQVVDTMALSS

Molecular target: the molecule itself
Assay: SEC

Binding result, binds:
B1
B2
B3
